The source of these data is PMC2782360.

Experiment [1] concerns the target recombinant human 37 kDa laminin receptor precursor (37LRP) (human) (UniProt P08865). Kind of experiment: SPR.
For experiment [2], the target named is native 67 kDa laminin receptor (67LR) shed from T47D cells (human (endogenous in T47D)) (UniProt P08865). Kind of experiment: SPR.

Turning to human laminin (complex), the results for the Kd in experiment [1] and in experiment [2] were 410 nM and 320 nM, respectively.
